Reference: US20210371525A1

Target: CD277 (BTN3A1) on Jeko-1 cells (UniProt O00481)
Experiment: cell-based or functional assay

Sequence of CD277 (BTN3A1) on Jeko-1 cells (O00481 30-513 limits assumed): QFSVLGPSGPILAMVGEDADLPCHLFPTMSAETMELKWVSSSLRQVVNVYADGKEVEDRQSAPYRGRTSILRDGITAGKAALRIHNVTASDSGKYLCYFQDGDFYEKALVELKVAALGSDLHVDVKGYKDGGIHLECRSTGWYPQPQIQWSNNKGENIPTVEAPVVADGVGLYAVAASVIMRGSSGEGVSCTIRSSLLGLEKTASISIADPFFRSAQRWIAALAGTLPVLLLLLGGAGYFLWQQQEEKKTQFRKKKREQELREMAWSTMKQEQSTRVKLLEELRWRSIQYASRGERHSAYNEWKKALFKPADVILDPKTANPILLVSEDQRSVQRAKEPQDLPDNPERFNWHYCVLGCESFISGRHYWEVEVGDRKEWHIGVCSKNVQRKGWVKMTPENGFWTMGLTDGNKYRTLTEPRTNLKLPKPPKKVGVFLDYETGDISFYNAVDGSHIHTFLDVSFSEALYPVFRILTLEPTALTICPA

decrease of 1D7-5C8-induced lysis of Jeko-1 cells with anti-CD277 mAb 103.2 (10 µg/mL): 11.4% | specific lysis of Jeko-1 cells at 10 pM 1D7-5C8 with anti-CD277 mAb 103.2 (10 µg/mL): 18.2%
B1: human Vγ9Vδ2-TCR on cultured Vγ9Vδ2-T cells (TCR, V domains shown)
V domain 1: AGHLEQPQISSTKTLSKTARLECVVSGITISATSVYWYRERPGEVIQFLVSISYDGTVRKESGIPSGKFEVDRIPETSTSTLTIHNVEKQDIATYYCALWEAQQELGKKIKVFGPGTKLIITD
V domain 2: AIELVPEHQTVPVSIGVPATLRCSMKGEAIGNYYINWYRKTQGNTMTFIYREKDIYGPGFKDNFQGDIDIAKNLAVLKILAPSERDEGSYYCACDTLGMGGEYTDKLIFGKGTRVTVEP
